Results from patent publication US20220251236A1 (Boehringer Ingelheim, published 2022).

Legend:
Human DLL3-His = molecular target: T1, Human DLL3-His (human, UniProt Q9NYJ7 27-492); test: SPR (ProteOn XPR36), bispecific captured on protein A/G, hu DLL3 as analyte, Example 4B
T1 construct: also called huDLL3-His; hu DLL3
T1 sequence: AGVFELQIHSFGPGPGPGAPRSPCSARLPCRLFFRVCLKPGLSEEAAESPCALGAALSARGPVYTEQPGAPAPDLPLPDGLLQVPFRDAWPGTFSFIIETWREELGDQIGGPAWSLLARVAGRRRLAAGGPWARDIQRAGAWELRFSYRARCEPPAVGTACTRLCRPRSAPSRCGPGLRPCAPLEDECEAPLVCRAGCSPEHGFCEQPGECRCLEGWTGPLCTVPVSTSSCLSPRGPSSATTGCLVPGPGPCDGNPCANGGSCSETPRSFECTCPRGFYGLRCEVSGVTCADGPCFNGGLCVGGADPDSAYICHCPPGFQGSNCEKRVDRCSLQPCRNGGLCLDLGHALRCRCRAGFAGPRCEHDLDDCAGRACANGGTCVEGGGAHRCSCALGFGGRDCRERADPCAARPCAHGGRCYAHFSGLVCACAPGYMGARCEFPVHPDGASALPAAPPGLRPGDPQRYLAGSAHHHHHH
Summary of the method: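 Bispecific constructs captured on protein A/G for 200 s at 30 μl/min, baseline stabilized with PBS-T-EDTA. Human DLL3 analyte injected 300 s at 30 μl/min; dissociation followed for 1800 s.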

[1] = molecular target: T2, trypsin inhibitor from glycine max soybean (Glycine max (soybean)); test: SPR (Biacore T200), trypsin inhibitor on CM5 chip, sample at 1 µM
T2 construct: also called Tryp
T2 sequence (P01070 25-205): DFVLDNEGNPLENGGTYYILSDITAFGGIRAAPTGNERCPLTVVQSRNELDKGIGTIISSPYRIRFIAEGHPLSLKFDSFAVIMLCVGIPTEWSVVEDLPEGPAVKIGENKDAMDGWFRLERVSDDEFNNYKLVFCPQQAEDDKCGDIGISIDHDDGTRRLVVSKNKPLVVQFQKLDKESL
Text: To prepare the surface for the non-specific binding experiment, chicken egg white lysozyme and trypsin inhibitor from glycine max soybean were coupled manually to a series S CM5 chip with the surface density of 3000-5000 RU using the amine coupling kit according to the manufacture instructions.

[2] = molecular target: T3, human DLL3 (endogenous, on SCLC cell lines NCI-H82 and SHP77 and in SCLC tissue) (human, UniProt Q9NYJ7 27-618); test: flow cytometry titration on SHP77 cells, PE anti-human secondary, x-fold over background
T3 construct: whole, on cells; also called SCLC cell lines expressing DLL3
T3 sequence (looked up): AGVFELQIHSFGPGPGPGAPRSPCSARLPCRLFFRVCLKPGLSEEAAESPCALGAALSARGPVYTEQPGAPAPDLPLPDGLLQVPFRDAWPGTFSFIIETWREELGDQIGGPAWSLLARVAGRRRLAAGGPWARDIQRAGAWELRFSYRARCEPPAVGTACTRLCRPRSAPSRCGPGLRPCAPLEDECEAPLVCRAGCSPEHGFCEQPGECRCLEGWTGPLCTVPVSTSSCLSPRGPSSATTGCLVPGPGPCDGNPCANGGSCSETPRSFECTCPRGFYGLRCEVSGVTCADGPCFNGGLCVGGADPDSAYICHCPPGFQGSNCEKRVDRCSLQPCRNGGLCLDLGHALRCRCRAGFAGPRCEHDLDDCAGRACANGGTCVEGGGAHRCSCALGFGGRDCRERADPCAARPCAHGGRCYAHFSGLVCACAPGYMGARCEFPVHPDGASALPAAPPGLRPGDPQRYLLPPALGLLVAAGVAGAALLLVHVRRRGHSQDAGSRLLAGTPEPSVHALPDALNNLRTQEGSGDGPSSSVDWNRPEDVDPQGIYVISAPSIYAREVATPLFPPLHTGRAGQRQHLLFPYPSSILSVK
Text: Cells (T cells or human SCLC cells) were stained with increasing concentrations of two-step purified DLL3/CD3 binding proteins with increasing concentrations in FACS buffer (PBS/0.5% BSA/0.05% sodium azide). Bound molecules were detected with PE-conjugated anti-human secondary antibody (Sigma-Aldrich, #P8047).

B1: DLL3#17/CD3#1 (bispecific antibody, human IgG1, kappa, lambda, L234A L235A)
chain 1: DIQMTQSPASLAASVGETVTITCRASENIYYSLAWYQQKQGKSPQLLIYNTNSLEDGVPSRFSGSGSGTQYSMKINSMQPEDTATYFCKQAYDFPLTFGAGTKLELKRTVAAPSVFIFPPSDEQLKSGTASVVCLLNNFYPREAKVQWKVDNALQSGNSQESVTEQDSKDSTYSLSSTLTLSKADYEKHKVYACEVTHQGLSSPVTKSFNRGECGGGGSEGKSSGSGSESKSTEGKSSGSGSESKSTGGGGSQIQLQQSGPEVVKPGASVKISCKASGYTFISYYIHWVKQRPGQGLEWIGWIYPGDGSTNNNEKFKGKTTLTADKSSSTAYMLLSSLTSEDSAVYFCARGEGNAMDDWGQGTSVTVSSASTKGPSVFPLAPSSKSTSGGTAALGCLVKDYFPEPVTVSWNSGALTSGVHTFPAVLQSSGLYSLSSVVTVPSSSLGTQTYICNVNHKPSNTKVDKRVEPKSCDKTHTCPPCPAPEAAGGPSVFLFPPKPKDTLMISRTPEVTCVVVDVSHEDPEVKFNWYVDGVEVHNAKTKPREEQYNSTYRVVSVLTVLHQDWLNGKEYKCKVSNKALPAPIEKTISKAKGQPREPQVYTLPPSREEMTKNQVSLWCLVKGFYPSDIAVEWESNGQPENNYKTTPPVLDSDGSFFLYSKLTVDKSRWQQGNVFSCSVMHEALHNHYTQKSLSLSPG
chain 2: EAVVTQEPSLTVSPGGTVTLTCRSSTGAVTTSNYANWVQEKPGQLPRGLIGGTNKRAPWVPARFSGSLLGGKAALTLSGAQPEDEAEYFCALWYSNLWVFGGGTKLTVLGQPKAAPSVTLFPPSSEELQANKATLVCLISDFYPGAVKVAWKADGSPVNTGVETTTPSKQSNNKYAASSYLSLTPEQWKSHRSYSCQVTHEGSTVEKTVAPAECSGGGGSEGKSSGSGSESKSTEGKSSGSGSESKSTGGGGSEVQLVESGGGLVQPGGSLKLSCAASGFTFNTYAMNWVRQAPGKGLEWVARIRSKYNNYATYYADSVKDRFTISRDDSKNTAYLQMNNLKTEDTAVYYCVRHGNFGNSYVSWFAYWGQGTLVTVSAASTKGPSVFPLAPSSKSTSGGTAALGCLVKDYFPEPVTVSWNSGALTSGVHTFPAVLQSSGLYSLSSVVTVPSSSLGTQTYICNVNHKPSNTKVDKRVEPKSCDKTHTCPPCPAPEAAGGPSVFLFPPKPKDTLMISRTPEVTCVVVDVSHEDPEVKFNWYVDGVEVHNAKTKPREEQYNSTYRVVSVLTVLHQDWLNGKEYKCKVSNKALPAPIEKTISKAKGQPREPQVYTLPPSREEMTKNQVSLSCAVKGFYPSDIAVEWESNGQPENNYKTTPPVLDSDGSFFLVSKLTVDKSRWQQGNVFSCSVMHEALHNRFTQKSLSLSPG
notes: Heterodimer of one DLL3 chain and one CD3 chain (scFab-Fc, knob-in-hole)
Kd (Human DLL3-His): < 0.02 nM
Non-specific binding (RU) [1]: 8 RU
EC50 (read off the curve) [2]: ~2 nM
